Assay results published in patent US20250034594A1, “RNA-GUIDED GENOME RECOMBINEERING AT KILOBASE SCALE” (THE BOARD OF TRUSTEES OF THE LELAND STANFORD JUNIOR …, priority 2021, published 2025).

Key:
DYNLT1 locus = test: mKate knock-in gene-editing assay, RecE/RecT homologs, DYNLT1 locus; type: cell-based, human; conditions: HEK293 cells, MCP fusion, n=3
Method: (§1) Transfection HEK293T cells were seeded into 96-well plates (Corning) 12-24 hours prior to transfection at a density of 30,000 cells/well, and 250 ng of total DNA was transfected per well. HeLa and HepG2 cells were seeded into 48-well plates (Corning) one day prior to transfection at a density of 50,000 and 30,000 cells/well respectively, and 400 ng of total DNA was transfected per well. Transfections were performed with Lipofectamine 3000 (Life Technologies) following the manufacturer's instructions.
(§2) Fluorescence-activated cell sorting (FACS) mKate knock-in efficiency was analyzed on a CytoFLEX flow cytometer (Beckman Coulter; Stanford Stem Cell FACS Core). 72 hours after transfection, cells were washed once with PBS and dissociated with TrypLE Express Enzyme (Thermo Fisher Scientific). Cell suspension was then transferred to a 96-well U-bottom plate (Thermo Fisher Scientific) and centrifuged at 300×G for 5 minutes. After removing the supernatant, pelleted cells were resuspended with 50 μl 4% FBS in PBS, and cells were sorted within 30 minutes of preparation.
(§3) 15 different species of microbes having RecE/RecT proteins were selected for a screen of various RecE and RecT proteins across the microbial kingdom (Table 3). Each protein was codon-optimized and synthesized. As previously described for E. coli RecE/RecT based REDIT systems, each protein was fused via E-XTEN linker to the MCP protein with additional nuclear localization signal. mKate knock-in gene-editing assay was used to measure efficiencies at DYNLT1 locus (FIG. 26A, Table 4) and HSP90AA1 locus (FIG. 26B, Table 4).

HSP90AA1 locus = test: mKate knock-in gene-editing assay, RecE/RecT homologs, HSP90AA1 locus; type: cell-based, human; conditions: HEK293 cells, MCP fusion, n=3
Method: as §1, §2, §3

B1: Homolog_T13: RecT, Salmonella enterica subsp. enterica serovar Javiana str. 10721; SEQ ID NO: 137 (protein, listed as Salmonella enterica)
chain: MPKQPPIAKADLQKTQGARTPTAVKNNNDVISFINQPSMKEQLAAALPRHMTAERMIRIATTEIRKVPALGDCDTMSFVSAIVQCSQLGLEPGGALGHAYLLPFGNRNEKSGKKNVQLIIGYRGMIDLARRSGQIASLSARVVREGDDFSFEFGLEEKLVHRPGENEDAPVTHVYAVARLKDGGTQFEVMTRKQIELVRAQSKAGNNGPWVTHWEEMAKKTAIRRLFKYLPVSIEIQRAVSMDEKETLTIDPADASVITGEYSVVENAGVEENVTA
DYNLT1 locus
  Mean mKate+ (%), DYNLT1: 9.9567%
HSP90AA1 locus
  Mean mKate+ (%), HSP90AA1: 5.7200%

B2: Homolog_T14: RecT, Pseudobacteriovorax antillogorgiicola; SEQ ID NO: 139 (protein, listed as Pseudobacteriovorax antillogorgiicola)
chain: MGHLVSKTEQDYIKQHYAKGATDQEFEHFIGVCRARGLNPAANQIYFVKYRSKDGPAKPAFILSIDSLRLIAHRTGDYAGCSEPIFTDGGKACTVTVRRNLKSGETGNFSGMAFYDEQVQQKNGRPTSFWQSKPRTMLEKCAEAKALRKAFPQDLGQFYIREEMPPQYDEPIQVHKPKALEEPRFSKSDLSRRKGLNRKLSALGVDPSRFDEVATFLDGTPDRELGQKLKLWLKEAGYGVNQ
DYNLT1 locus
  Mean mKate+ (%), DYNLT1: 6.7700%
HSP90AA1 locus
  Mean mKate+ (%), HSP90AA1: 4.7200%

B3: Homolog_E14: RecE, Pseudobacteriovorax antillogorgiicola; SEQ ID NO: 140 (protein, listed as Pseudobacteriovorax antillogorgiicola)
chain: MSKLSNLKVSNSDVDTLSRIRMKEGVYRDLPIESYHQSPGYSKTSLCQIDKAPIYLKTKVPQKSTKSLNIGTAFHEAMEGVFKDKYVVHPDPGVNKTTKSWKDFVKRYPKHMPLKRSEYDQVLAMYDAARSYRPFQKYHLSRGFYESSFYWHDAVTNSLIKCRPDYITPDGMSVIDFKTTVDPSPKGFQYQAYKYHYYVSAALTLEGIEAVTGIRPKEYLFLAVSNSAPYLTALYRASEKEIALGDHFIRRSLLTLKTCLESGKWPGLQEEILELGLPFSGLKELREEQEVEDEFMELVG
DYNLT1 locus
  Mean mKate+ (%), DYNLT1: 6.0167%
HSP90AA1 locus
  Mean mKate+ (%), HSP90AA1: 5.7100%

B4: Homolog_E13: RecE, Salmonella enterica subsp. enterica serovar Javiana str. 10721; SEQ ID NO: 138 (protein, listed as Salmonella enterica)
chain: MYYDIPNEAYHAGPGVSKSQLDDIADTPAIYLWRKNAPVDTEKTKSLDTGTAFHCRVLEPEEFSKRFIIAPEFNRRTSAGKEEEKTFLEECTRTGRTVLTAEEGRKIELMYQSVMALPLGQWLVESAGYAESSVYWEDPETGILCRCRPDKIIPEFHWIMDVKTTADIQRFRTAYYDYRYHVQDAFYSDGYRAQFGEIPTFVFLVASTTAECGRYPVEIFMMGEDAKLAGQREYRRNLQTLAECLNNDEWPAIKTLSLPRWAKENANA
DYNLT1 locus
  Mean mKate+ (%), DYNLT1: 5.6333%
HSP90AA1 locus
  Mean mKate+ (%), HSP90AA1: 5.6900%

B5: Homolog_T12: RecT, Acetobacter; SEQ ID NO: 135 (protein, listed as Acetobacter sp.)
chain: MNAPQKQNTRAAVKKISPQEFAEQFAAIIPQVKSVLPAHVTFEKFERVVRLAVRKNPDLLTCSPASLFMACIQAASDGLLPDGREGAIVSRWSSKKSCNEASWMPMVAGLMKLARNSGDIASISSQVVFEGEHFRVVLGDEERIEHERDLGKTGGKIVAAYAVARLKDGSDPIREIMSWGQIEKIRNTNKKWEWGPWKAWEDEMARKTVIRRLAKRLPMSTDKEGERLRSAIERIDSLVDISANVDAPQIAADDEFAAAAHGVEPQQIAAPDLIGRLAQMQSLEQVQDIEPQVSHAIQEADKRGDSDTANALDAALQSALSRTSTAKEEVPA
DYNLT1 locus
  Mean mKate+ (%), DYNLT1: 8.5900%
HSP90AA1 locus
  Mean mKate+ (%), HSP90AA1: 5.2733%

B6: Homolog_E15: RecE, Photobacterium sp. JCM 19050; SEQ ID NO: 142 (protein, listed as Photobacterium sp.)
chain: MAERVRTYQRDAVFAHELKAEFDEAVENGKTGVTLEDQARAKRMVHEATTNPASRNWFRYDGELAACERSYFWRDEEAGLVLKARPDKEIGNNLIDVKSIEVPTDVCACDLNAYINRQIEKRGYHISAAHYLSGTGKDRFFWIFINKVKGYEWVAIVEASPLHIELGTYEVLEGLRSIASSTKEADYPAPLSHPVNERGIPQPLMSNLSTYAMKRLEQFREL
DYNLT1 locus
  Mean mKate+ (%), DYNLT1: 5.0700%
HSP90AA1 locus
  Mean mKate+ (%), HSP90AA1: 6.0500%

B7: Homolog_T15: RecT, Photobacterium sp. JCM 19050; SEQ ID NO: 141 (protein, listed as Photobacterium sp.)
chain: MNTDMIAMPPSPAISMLDTSKLDVMVRAAELMSQAVVMVPDHFKGKPADCLAVVMQADQWGMNPFTVAQKTHLVSGTLGYESQLVNAVISSSKAIKGRFHYEWSDGWERLAGKVQYVKESRQRKGQQGSYQVTVAKPTWKPEDEQGLWVRCGAVLAGEKDITWGPKLYLASVLVRNSELWTTKPYQQAAYTALKDWSRLYTPAVMQGSMTGKSWSLTGRLISPR
DYNLT1 locus
  Mean mKate+ (%), DYNLT1: 7.8033%
HSP90AA1 locus
  Mean mKate+ (%), HSP90AA1: 5.2333%

B8: Homolog_T11: RecT, Salmonella enterica; SEQ ID NO: 133 (protein, listed as Salmonella enterica)
chain: MTKQPPIAKADLQKTQGNRAPAAVNDKDVLCVINSPAMKAQLAAALPRHMTAERMIRIATTEIRKVPELRNCDSTSFIGAIVQCSQLGLEPGSALGHAYLLPFGNGKAKNGKKNVQLIIGYRGMIDLARRSGQIISLSARVVRECDEFSYELGLDEKLVHRPGENEDAPITHVYAVAKLKDGGVQFEVMTKKQVEKVRDTHSKAAKNAASKGASSIWDEHFEDMAKKTVIRKLFKYLPVSIEIQRAVSMDGKEVETINPDDISVIAGEYSVIDNPEE
DYNLT1 locus
  Mean mKate+ (%), DYNLT1: 9.8467%
HSP90AA1 locus
  Mean mKate+ (%), HSP90AA1: 4.9233%

B9: Homolog_E12: RecE, Acetobacter; SEQ ID NO: 136 (protein, listed as Acetobacter sp.)
chain: MVISKSGIYDLTNEQYHADPCPEMSLSSSGARDLLSSCPAKFIAAKQLPQQNKRCFDIGSAGHLMVLEPHLFDQKVCEIKHPDWRTKAAKEERDAAYAEGRIPLLSREVEDIRAMHSVVWRDSLGARAFSGGKAEQSLVWRDEEFGIWCRLRPDYVPNNAVRIFDYKTATNGSPDAFMKEIYNRGYHQQAAWYLDGYEAVTGHRPREFWFVVQEKTAPFLLSFFQMDEMSLEIGRTLNRQAKGIFAWCLRNNCWPGYQPEVDGKVRFFTTSPPAWLVREYEFKNEHGAYEPPEIKRKEVA
DYNLT1 locus
  Mean mKate+ (%), DYNLT1: 5.2633%
HSP90AA1 locus
  Mean mKate+ (%), HSP90AA1: 6.0800%

B10: Homolog_E10: RecE, Shigella sonnei; SEQ ID NO: 132 (protein, listed as Shigella sonnei)
chain: DRGLLTKEWRKGNRVSRITRTASGANAGGGNLTDRGEGFVHDLTSLARDIATGVLARSMDVDIYNLHPAHAKRIEEIIAENKPPFSVFRDKFITMPGGLDYSRAIVVASVKEAPIGIEVIPAHVTAYLNKVLTETDHANPDPEIVDIACGRSSAPMPQRVTEEGKQDDEEKLQPSGTTADEQGEAETMEPDATKHHQDTQPLDAQSQVNSVDAKYQELRAELHEARKNIPSKNPVDADKLLAASRGEFVDGISDPNDPKWVKGIQTRDSVYQNQPETEKTSPDMKQPEPVVQQEPEIAFNACGQTGGDNCPDCGAVMGDATYQETFDEENQVEAKENDPEEMEGAEHPHNENAGSDPHRDCSDETGEVADPVIVEDIEPGIYYGISNENYHAGPGVSKSQLDDIADTPALYLWRKNAPVDTTKTKTLDLGTAFHCRVLEPEEFSNRFIVAPEFNRRTNAGKEEEKAFLMECASTGKMVITAEEGRKIELMYQSVMALPLGQWLVESAGHAESSIYWEDPETGILCRCRPDKIIPEFHWIMDVKTTADIQRFKTAYYDYRYHVQDAFYSDGYEAQFGVQPTFVFLVASTTIECGRYPVEIFMMGEEAKLAGQLEYHRNLRTLADCLNTDEWPAIKTLSLPRWAKEYAND
DYNLT1 locus
  Mean mKate+ (%), DYNLT1: 4.4000%
HSP90AA1 locus
  Mean mKate+ (%), HSP90AA1: 3.5900%

B11: Homolog_E11: RecE, Salmonella enterica; SEQ ID NO: 134 (protein, listed as Salmonella enterica)
chain: DRGLLTKEWRKGNRVSRITRTASGANAGGGNLTDRGEGFVHDLTSLARDVATGVLARSMDVDIYNLHPAHAKRVEEIIAENKPPFSVFRDKFITMPGGLDYSRAIVVASVKEAPIGIEVIPAHVTEYLNKVLTETDHANPDPEIVDIACGRSSAPMPQRVTEEGKQDDEEKPQPSGAMADEQATAETVEPNATEHHQNTQPLDAQSQVNSVDAKYQELRAELQEARKNIPSKNPVDADKLLAASRGEFVDGISDPNDPKWVKGIQTRDSVYQNQPETEKISPDAKQPEPVVQQEPETVCNACGQTGGDNCPDCGAVMGDATYQETFGEENQVEAKEKDPEEMEGAEHPHNENAGSDPHRDCSDETGEVADPVIVEDIEPGIYYGISNENYHAGPGVSKSQLDDIADTPALYLWRKNAPVDTTKTKTLDLGTAFHCRVLEPEEFSNRFIVAPEFNRRTNAGKEEEKAFLMECASTGKTVITAEEGRKIELMYQSVMALPLGQWLVESAGHAESSIYWEDPETGILCRCRPDKIIPEFHWIMDVKTTADIQRFKTAYYDYRYHVQDAFYSDGYEAQFGVQPTFVFLVASTTVECGRYPVEIFMMGEEAKLAGQQEYHRNLRTLADCLNTDEWPAIKTLSLPRWAKEYAND
DYNLT1 locus
  Mean mKate+ (%), DYNLT1: 7.0567%
HSP90AA1 locus
  Mean mKate+ (%), HSP90AA1: 3.1167%
